In paper PMC5065237, “Investigation into the Mode of Phosphate Activation in the 4-Hydroxy-4-Methyl-2-Oxoglutarate/4-Carboxy-4-Hydroxy-2-Oxoadipate Aldolase from Pseudomonas putida F1” (PLoS ONE, 2016):

Columns and labels:
Assay in all cases: purified protein
Assay type in all cases: biochemical, Pseudomonas putida
[1] = tested on: T1, CC(O)(CC(=O)C(=O)O)C(=O)O; details: without Pi, 1 mM MgCl2, 0.1 M HEPES pH 8.0, 25 °C, racemic substrate
T1 construct: recombinant from pT7-7, expressed in E. coli; chelex-treated apo-enzyme reconstituted with MgCl2

O=C(O)CC(=O)C(=O)O = tested on: T2, O=C(O)CC(=O)C(=O)O; details: without Pi, 1 mM MgCl2, 0.1 M HEPES pH 8.0, 25 °C
T2 construct: recombinant from pT7-7, expressed in E. coli; chelex-treated apo-enzyme reconstituted with MgCl2

[2] = tested on: T3, O=C(O)CC(O)(CC(=O)C(=O)O)C(=O)O; details: without Pi, 1 mM MgCl2, 0.1 M HEPES pH 8.0, 25 °C, racemic substrate
T3 construct: recombinant from pT7-7, expressed in E. coli; chelex-treated apo-enzyme reconstituted with MgCl2

Row | Substance | Km [1] [µM] | kcat [1] [s⁻¹] | kcat/Km [1] [M⁻¹ s⁻¹] | Km (O=C(O)CC(=O)C(=O)O) [µM] | kcat (O=C(O)CC(=O)C(=O)O) [s⁻¹] | kcat/Km (O=C(O)CC(=O)C(=O)O) [M⁻¹ s⁻¹] | Km [2] [µM] | kcat [2] [s⁻¹] | kcat/Km [2] [M⁻¹ s⁻¹]
1 | HMG/CHA aldolase (Pseudomonas putida F1; K147A) | 2010 ± 210 | 0.014 ± 0.00039 | 6.97 ± 0.75 |  |  |  |  |  | 
2 | HMG/CHA aldolase (Pseudomonas putida F1; N71A) | 796 ± 70 | 0.014 ± 0.0011 | 17.6 ± 2.1 |  |  |  |  |  | 
3 | HMG/CHA aldolase (Pseudomonas putida F1; R195A) | 1370 ± 58 | 6.72 ± 0.19 | 4910 ± 250 |  |  |  |  |  | 
4 | HMG/CHA aldolase (Pseudomonas putida F1; R123K) | 3210 ± 210 | 0.086 ± 0.0046 | 26.7 ± 2.3 |  |  |  |  |  | 
5 | HMG/CHA aldolase (Pseudomonas putida F1; T145A) | 1080 ± 88 | 0.889 ± 0.057 | 823 ± 85 |  |  |  |  |  | 
6 | HMG/CHA aldolase (Pseudomonas putida F1; R40A) | 304 ± 27 | 6.7 ± 0.14 | 22000 ± 2100 |  |  |  |  |  | 
7 | HMG/CHA aldolase (Pseudomonas putida F1; H75A) | 389 ± 22 | 22.3 ± 0.75 | 57300 ± 3800 |  |  |  |  |  | 
8 | HMG/CHA aldolase (Pseudomonas putida F1; G144V) | 1390 ± 160 | 0.215 ± 0.015 | 155 ± 21 |  |  |  |  |  | 
9 | HMG/CHA aldolase (Pseudomonas putida F1) | 188 ± 11 | 15.6 ± 0.54 | 83000 ± 5600 | 298 ± 30 | 1.86 ± 0.18 | 6240 ± 870 | 15.0 ± 1.3 | 13.4 ± 0.31 | 893000 ± 80000
